# According to the nanobody polyreactivity screen of Harvey et al. (2022):
# Experiment: yeast display, Sf9 membrane polyspecificity reagent, FACS + sequencing; frameworks hold sequencing errors
# How it was run: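 Sorting gates, low and high (top ~1%), were placed on anti-HA fluorescence to track expression and on streptavidin fluorescence to track reagent binding. A clone's polyreactivity label is taken from the gate it came out of. The reagent was 10% biotinylated, detergent-solubilized Sf9 membrane, applied for 1 hour at 4 °C to galactose-induced yeast display cells.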
row,Sequence,polyreactivity (PSR sort gate)
1,QVQLVESGGGLVQAGGSLRLSCAASGIIFSRYAMGWYRQAPGKERELVAAISTSGGRTFYADSVKGRFTISRDYAKNTVYLQMNSLKPEDTAVYYCNAEIQRGPGRGGYNYWGQGTQVTVSS,high polyreactivity
2,QVQLVESGGGLVQAGGSLRLSCAASGIIFSSNVMGWYRQAPGKERELVAAISRSGDRSYYADSVKGRFTISRDNAKITVYLQMNSLKPEDTAVYYCAGRVRVNVVSNGYWGQGTQVTVSS,high polyreactivity
3,QVQLVESGGGLVQAGGSLRLSCAASGIIFSSNVMGWYRQAPGKERELVAAISRSGDRTYYADSVKGRFTISRDNAKNTVYLQMNSLKPEDTAVYYCAARERVNVVSNGYWGQGTQVTVSS,high polyreactivity
4,QVQLVESGGGLVQAGGSLRLSCAASGIIFSVYAMGWYRQAPGKERELVAAITRSGSRTYYADSVKGRFTISRDNAKNTVYLQMNSLKPEDTAVYYCNAVPRVTRPSAVEEYDYWGQGTQVTVSS,high polyreactivity
5,QVQLVESGGGLVQAGGSLRLSCAASGIIFSWNTMGWYRQAPGKERELVAAISSSGGSTYYADSVKGRFTISRDNAKNTVYLQMNSLKPEDTAVYYCAADVYHWIHEYDYWGQGTQVTVSS,low polyreactivity
6,QVQLVESGGGLVQAGGSLRLSCAASGIIFSWYDMGWYRQAPGKERELVAAISSGDRTNYADSVKGRFTISRDNAKNTVYLQMNSLKPEDTAVYYCAADLFPIAGEYDYWGQGTQVTVSS,high polyreactivity
7,QVQLVESGGGLVQAGGSLRLSCAASGIIFSYNTMGWYRPAPGKERELVAAISRTGGRTYYADSVKGRFTNSRDNAKITVYLQMNSLKPEDTAVYYCAAEQQYASMGYDYWGLGTQVTVSS,high polyreactivity
8,QVQLVESGGGLVQAGGSLRLSCAASGIIFSYYTMGWYRQAPGKERELVAAISARGGRTYYADSVKGRFTISRDNAKNTVYLQMNSLKPEDTAVYYCAASWSTEYYWGQGTQVTVSS,high polyreactivity
9,QVQLVESGGGLVQAGGSLRLSCAASGIIFSYYTMGWYRQAPGKERELVAAISRTGGRTYYADSVKGRFTISRDNAKNTVYLQMNSLKPEDTAVYYCAAEQQYASICYDYWGQGTEVTVSS,high polyreactivity
10,QVQLVESGGGLVQAGGSLRLSCAASGIIFTGYTMGWYRQAPGKERELVAAITWRGGCTYYADSVKGRFTISRDNAKNTVYLQMNSLKPEDTAVYYCAAEGWYSWDDDYWGQGTQVTVSS,low polyreactivity
11,QVQLVESGGGLVQAGGSLRLSCAASGIIFTKYFMGWYRQAPGKERELVAAINTDGGSTRYADSVKGRFTISRDNAKNTVYLQMNSLKPEDTAVYYCAAVSSRRPGYEYYYWGQGTQVTVSS,high polyreactivity
12,QVQLVESGGGLVQAGGSLRLSCAASGIIFTPNAMGWSRQAPGKERELVAAINYGGDTTYYADSVKGRFTISRDNAKNTVYFQMNSLKPADTAVYYCATDGTTPTPRDAFVRFDHWGQGTQVTVSS,low polyreactivity
13,QVQLVESGGGLVQAGGSLRLSCAASGIIFTRNAKGWSRQAPGKERELVAAISRSGGRTSYADSVKGRFTISRDNAKNTVYLHMNSLKPEDTEVYYCYARTTSGWGQGTQVTVSS,high polyreactivity
14,QVQLVESGGGLVQAGGSLRLSCAASGIIFTRNAMGWYRQATGKERELVAAITYGGSTYYADSVKGRFTISRDNAKNTVYLQMNSLKPEDTAVYYCAVDAYRYRVHSYGKKYGYNYWGQGTQVTVSS,high polyreactivity
15,QVQLVESGGGLVQAGGSLRLSCAASGIIFTSNTMGWYRQAPGKEREFVASINWNGSSTNADSVKGRFTISRDNAKNTVYLQMNSLKPEDTAVYYCNADYNRNSVQFSLYDYWGQGTQVTVSS,low polyreactivity
16,QVQLVESGGGLVQAGGSLRLSCAASGIIFTVYAMGWDRQAPGKERELVAAISFSTGRTYYADSVKGRFTISRDNAKNTVYLQMNSLKPEDTAVYYCAASAGHTFSKPFDRGRYGYWGQGTQVTVSS,high polyreactivity
17,QVQLVESGGGLVQAGGSLRLSCAASGIIFTVYAMGWYRQAPGKERELVAAITWSGGSTYYADSVKGRFTISRDNAKNTVYLQMNSLKPEDTAVYYCNKVGRVWDVETDGDYDYWGQGTQVTVSS,low polyreactivity
18,QVQLVESGGGLVQAGGSLRLSCAASGIIFTVYAMGWYRQAPGKERELVASITSNGGSTYYADSVKGRFTISRDNAKNTVYLQMNSLKPEDTAVYYCAADSYYDPVDYNYWGQGTQVTVSS,low polyreactivity
19,QVQLVESGGGLVQAGGSLRLSCAASGIIFTYYAMGWDRQAPGKERELVARISSSGGRTYYADSVKGRFTISRDNAKNTVYLQMNSLKPEDTAVYYCAAAIVSYGRNDYWGQGTQVTVSS,high polyreactivity
20,QVQLVESGGGLVQAGGSLRLSCAASGIIFTYYAMGWYRQAPGKERELVAAISDSGGGTYYADSVKGRFTISRDNAKNTVYLQMNSLKPEDTAVYYCAASGAWWDDYWGQGTQVTVSS,high polyreactivity
21,QVQLVESGGGLVQAGGSLRLSCAASGIIFTYYAMGWYRQAPGKERELVAAISVSGSSTYYADSVKARFTISRDYAKNTVYLQMNRLKPEDTAVYYCAVKQGFYSRALKLYYWGQGTQVTVSS,high polyreactivity
22,QVQLVESGGGLVQAGGSLRLSCAASGIIFTYYAMGWYRQAPGKERELVAAISYRGGSTYYADSVKGRFTISRDNAKNTVYLQMNSLKPEDTAVYYCNARYFRHYDYWGQGTQVTVSS,high polyreactivity

row,Sequence,polyreactivity (PSR sort gate)
1,QVQLVESGGGLVQAGGSLRLSCAASGIIFTYYAMGWYRQAPGKERELVASISSSGTSTYYADSVKGRFTISRDNAKNTVYLQMNSLKPEDTAVYYCAADWTGSNGVDYWGQGTQVTVSS,low polyreactivity
2,QVQLVESGGGLVQAGGSLRLSCAASGIIFVDYVMGWYRQAPGKERELVAAITYTGGSTYYADSVKGRFTISRDNAKNTVYLQMNSLKPEDTAVYYCAARRNDRFFPAYYYWGQGTQVTVSS,high polyreactivity
3,QVQLVESGGGLVQAGGSLRLSCAASGIIFVFNAMGWYRQAPGKERELVAVISTSGDSTYYADSVKGRFTISRDNAKNTVYLQMNSLKPEDTAVYYCAADQRVTYRRGRAYDKYYYWGQGTQVTVSS,low polyreactivity
4,QVQLVESGGGLVQAGGSLRLSCAASGIIFVGNAMGWYRQAPGKERELVASINSGGSTYYADSVKGRFTISRDNAKNTVYLPMNSLKPEDTAVYYCAVEEARYYYDDYDYWGQGTQVTVSS,low polyreactivity
5,QVQLVESGGGLVQAGGSLRLSCAASGIIFVINAMGWYRQAPGKERELVATITGSGTTNYADSVKGRFTISRDNAKNTVYLHMNSLKPEDTAVYYCARDDTEYARTGAYDYWGQGTQVTVSS,low polyreactivity
6,QVQLVESGGGLVQAGGSLRLSCAASGIIFVLYTMGWYIQAPGKERELVATINWGGGNTYYADSVKGRFTISRDNAKNTVYFQMNSLKPEDTAVYYCAAAYTWYGYSQAYYYWGQGTQVTVSS,low polyreactivity
7,QVQLVESGGGLVQAGGSLRLSCAASGIIFVTNDMGWYRQAPGKERELVATITWSGGSTYYADSVKGRFTISRDNAKNTVYLQMNSLKPEDSAVYYCAAESRYTWIHSRDYWGQGTQVTVSS,low polyreactivity
8,QVQLVESGGGLVQAGGSLRLSCAASGIIFVVYDMGWYRQAPGKERELVAAINWSGGSTYYADSVKGRFTISRDNAKNTVYLQMNSLKPEDTAVYYCAAESFSDGSPYNYWGQGTQVTVSS,low polyreactivity
9,QVQLVESGGGLVQAGGSLRLSCAASGIIFVYNAMGWYRPAPGKARELVAAINWRGDGTYYADSVKGRFTISRDNAKNTVYLQMNCLKPEDTAVYYCNAVRFRPNSHYRPVGYDYWGQGTQVTVSS,low polyreactivity
10,QVQLVESGGGLVQAGGSLRLSCAASGIIFVYYAMGWYRQAPGKERELVAAISTGGTRTYYADSVKGRFTISRDNAKNTVYLQMNSLKPEDTAVYYCNARGRYRKSERRAFDYWGQGTQVTVSS,high polyreactivity
11,QVQLVESGGGLVQAGGSLRLSCAASGIIFVYYAMGWYRQAPGKERELVAAISTRGGSTYYADSVKGRFTISRDNAKNTVYLQMNSLKPEDTAVYYCAATYVYRYVPRIPSEAYDYWGQGTQVTVSS,high polyreactivity
12,QVQLVESGGGLVQAGGSLRLSCAASGIIFWYYAMGWYRQAPGKDRELVARITTAGITNYADSVKGRFTISRDNAKNTVYLQMNSLKPEDTAVYYCAADTYWHYRGPGYDYWGQGTQVTVAS,low polyreactivity
13,QVQLVESGGGLVQAGGSLRLSCAASGIIFYDYAMGGYREAPGKERELVATITRGGGTKYADSVKGRFTISRDNAKNTVYLQMNSLKPEDTAVYYCAADSHGVYEGDYCGQGTQVTVSS,low polyreactivity
14,QVQLVESGGGLVQAGGSLRLSCAASGIIFYDYAMGWYRPAPGKERELVAAINYSGGSTYYADSVKGRFTISRDNAKNTVYLQMNSLKPEDTAVYYCAADNAVWEYDYWGQGSQVTVSS,low polyreactivity
15,QVQLVESGGGLVQAGGSLRLSCAASGIIFYDYAMGWYRQAPGKERELVAAISGSGGSTYYADSVKGRFTISRDNAKNTVYLQMNSLKPEDTAVYYCAARFTRQMYYWGQGTQVTVSS,high polyreactivity
16,QVQLVESGGGLVQAGGSLRLSCAASGIIFYDYAMGWYRQAPGKERELVAAISTDAGSTYYADSVKGRFTISRDNAKNTVYLQMNSLKPEDTAVYYCNADEHSYSVSWDYEYDYWGQGTQVTVSS,high polyreactivity
17,QVQLVESGGGLVQAGGSLRLSCAASGIIFYDYAMGWYRQAPGKERELVAAITSGGSTNYADSVKGRFTISRDNAKNTVYLQMNSLKPEDTAVYYCAATYWSWISLRFYWGQGTQVTVSS,low polyreactivity
18,QVQLVESGGGLVQAGGSLRLSCAASGIIFYDYAMGWYRQAPGKERELVAAITSSGGSTYYADSVKGRFTISRDNAKNTVYLQMNRLKPEDTAVYYCAAATRGSGRRYDYWGQGTQVTVSS,high polyreactivity
19,QVQLVESGGGLVQAGGSLRLSCAASGIIFYFYARGWYRQAPGKETELVAANSRGGSTKYADSVKGRFTISRDNAKNTVYLLMYSLKPEDTAFYYCNARVRGVRQGIMDYWGQGTQVSVSS,high polyreactivity
20,QVQLVESGGGLVQAGGSLRLSCAASGIIFYGNAMGWYRPAPGKERELVAAISWTTDSTYADSVKGRFTISRDNAKNTVYLQMNSLKPEDTAVYYCNARNGSEFLANDLFTHEYDYWGQGTQVTVSS,low polyreactivity
21,QVQLVESGGGLVQAGGSLRLSCAASGIIFYGNAMGWYRQAPGKERELVAAISWSGSSTYYADSVKGRFTISRDNAKNTVYLQMNSLKPEDPAVYYCNKATSSVRYLKYYYWGQGTQVTVSS,high polyreactivity
